The values below come from article PMC4176167, “Solution structure and intramolecular exchange of methyl-cytosine binding domain protein 4 (MBD4) on DNA suggests a mechanism to scan for mCpG/TpG mismatches”.

The target in series [1] is Trx-His6-MBD4 MBD Y109F (SPR) (Homo sapiens, UniProt O95243 80-148, Y109F). Put plainly: SPR; SPR running buffer: 10 mM HEPES pH 7.4, 50 mM NaCl, 3 mM MgCl2, 0.1 mM EDTA, 1 mM DTT, 0.1% BSA, 0.005% polysorbate 20 (samples prepared at pH 6.5); temperature not given; NMR buffer not given (low salt, up to 100 mM NaCl in titration). The settings on record: protein: recombinant, tags: N-terminal thioredoxin and His6 fusion, retained for SPR, label: 3' biotin on strand 1 (SPR only), blunt. A general note: In SPR one partner is held on a chip, and binding of the other changes the refractive index at the surface.

Series [2] concerns the target T1, cMBD2 MBD (NMR) (UniProt Q5EFL0 2-70). Description: NMR (HSQC, Nz-exchange); SPR running buffer: 10 mM HEPES pH 7.4, 50 mM NaCl, 3 mM MgCl2, 0.1 mM EDTA, 1 mM DTT, 0.1% BSA, 0.005% polysorbate 20 (samples prepared at pH 6.5); temperature not given; NMR buffer not given (low salt, up to 100 mM NaCl in titration). The settings on record: protein: recombinant; tags: tags removed by thrombin; blunt.

The target in series [3] is T1, cMBD2 MBD (NMR). Put plainly: NMR (TROSY HSQC); slow to intermediate exchange between sites; SPR running buffer: 10 mM HEPES pH 7.4, 50 mM NaCl, 3 mM MgCl2, 0.1 mM EDTA, 1 mM DTT, 0.1% BSA, 0.005% polysorbate 20 (samples prepared at pH 6.5); temperature not given; NMR buffer not given (low salt, up to 100 mM NaCl in titration). Particulars: protein: recombinant; tags: tags removed by thrombin; blunt.

A further series deals with Trx-His6-MBD4 MBD (SPR) (Homo sapiens, UniProt O95243 80-148). Description: SPR; SPR running buffer: 10 mM HEPES pH 7.4, 50 mM NaCl, 3 mM MgCl2, 0.1 mM EDTA, 1 mM DTT, 0.1% BSA, 0.005% polysorbate 20 (samples prepared at pH 6.5); temperature not given; NMR buffer not given (low salt, up to 100 mM NaCl in titration). Particulars: protein: recombinant, tags: N-terminal thioredoxin and His6 fusion (modified pET32a), retained for SPR, label: 3' biotin on strand 1 (SPR only), blunt.

Series [4] deals with T1, cMBD2 MBD (NMR). Put plainly: NMR (TROSY HSQC); fast exchange between sites; SPR running buffer: 10 mM HEPES pH 7.4, 50 mM NaCl, 3 mM MgCl2, 0.1 mM EDTA, 1 mM DTT, 0.1% BSA, 0.005% polysorbate 20 (samples prepared at pH 6.5); temperature not given; NMR buffer not given (low salt, up to 100 mM NaCl in titration). Particulars: protein: recombinant; tags: tags removed by thrombin; blunt.

Where [5] appears, read: one G:T mismatch (strand 1 G10, strand 2 T8).

T1 sequence (Q5EFL0 entry or part of it): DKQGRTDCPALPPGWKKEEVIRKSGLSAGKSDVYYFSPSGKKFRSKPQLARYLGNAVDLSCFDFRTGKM
Sequence of Trx-His6-MBD4 MBD Y109F (SPR) (O95243 80-148 Y109F): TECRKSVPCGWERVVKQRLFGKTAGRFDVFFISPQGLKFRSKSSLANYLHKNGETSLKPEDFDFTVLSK
Sequence of Trx-His6-MBD4 MBD (SPR) (O95243 80-148): as the sequence (O95243 80-148 Y109F) above, with F30Y counted along it

B1: hmCpG (17 bp) (dsDNA)
DNA 1: GAGGCGCTCGGCGGCAG
DNA 2: CTGCCGCCGAGCGCCTC
modifications: 5-hydroxymethyl-C at strand 1 position 9 and strand 2 position 8
As to B1, the Kd in series [1] was determined as 16 ± 3 µM.

B2: mCpG (10 bp), wild-type (dsDNA)
DNA 1: GGATCGGCTC
DNA 2: GAGCCGATCC
modifications: 5-methyl-C at position 5 of both strands
In the case of B2, in the series with cMBD2 MBD (NMR) [2], the binding result is “binds”.

B3: CpG (17 bp) (dsDNA)
DNA 1: GAGGCGCTCGGCGGCAG
DNA 2: CTGCCGCCGAGCGCCTC
In the case of B3, the Kd in series [1] is 19.6 ± 3.5 µM.

B4: Inverted (10 bp) (dsDNA)
DNA 1: GGACCGACTC
DNA 2: GAGTCGGTCC
modifications: 5-methyl-C at position 5 of both strands
In the case of B4, in the series with cMBD2 MBD (NMR) [2], the binding result was “binds”.

B5: Tandem (30 bp) (dsDNA)
DNA 1: CACGGATCGGCTCCCCCGAGTCGGTCCCGC
DNA 2: GCGGGACCGACTCGGGGGAGCCGATCCGTG
modifications: 5-methyl-C at strand 1 positions 8 and 22 and strand 2 positions 8 and 22
In the case of B5, the binding result with cMBD2 MBD (NMR) [3] was “binds”.

B6: mCpG (17 bp) (dsDNA)
DNA 1: GAGGCGCTCGGCGGCAG
DNA 2: CTGCCGCCGAGCGCCTC
modifications: 5-methyl-C at strand 1 position 9 and strand 2 position 8
As to B6, the dissociation constant (Kd) in series [1] came out at 7.9 ± 1.6 µM; in the series with Trx-His6-MBD4 MBD (SPR), 6.4 ± 1.5 µM.

B7: Tandem (20 bp) (dsDNA)
DNA 1: GGATCGGCTCGGACCGACTC
DNA 2: GAGTCGGTCCGAGCCGATCC
modifications: 5-methyl-C at strand 1 positions 5 and 15 and strand 2 positions 5 and 15
B7: the binding result in the series with cMBD2 MBD (NMR) [4] is recorded as “binds”.

B8: mCpG/TpG mismatch (17 bp) (dsDNA)
DNA 1: GAGGCGCTCGGCGGCAG
DNA 2: CTGCCGCTGAGCGCCTC
modifications: 5-methyl-C at strand 1 position 9
For the molecule B8, the figures for the Kd (in series [1] (setting [5]); with Trx-His6-MBD4 MBD (SPR) (setting [5])) were 14 ± 1.4 µM and 11.5 ± 1.2 µM, respectively.

A word on the Kd: it is the constant that tells how readily two partners part at equilibrium.
